Here are results for 1 molecule from patent US20230129812A1 (ACCELERON PHARMA, published 2023).

Test [1] concerns the target T1, activin B (UniProt P09529 293-407).
T1 sequence (looked up): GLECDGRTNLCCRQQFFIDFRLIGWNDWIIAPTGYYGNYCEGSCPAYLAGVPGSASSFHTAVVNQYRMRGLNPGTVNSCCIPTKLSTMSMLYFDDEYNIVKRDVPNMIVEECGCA
Kind of test: SPR (Biacore); receptor-Fc captured by anti-Fc antibody, ligand injected. On the procedure: (§1) A Biacore™-based binding assay was used to compare ligand binding selectivity of the ALK4-Fc:ActRIIB-Fc heterodimeric complex described above with that of ActRIIB-Fc and ALK4-Fc homodimer complexes. The ALK4-Fc:ActRIeB-Fc heterodimer, […], and ALK4-Fc homodimer were independently captured onto the system using an anti-Fc antibody. Ligands were injected and allowed to flow over the captured receptor protein. Results are summarized in Table 13 below, in which ligand off-rates (kd) most indicative of effective polypeptides are denoted in bold.
Background: SPR reads the build-up and loss of mass on a sensor chip optically.

Test [2] deals with T2, GDF11 (UniProt O95390 299-407).
T2 construct: also called BMP11
T2 sequence (looked up): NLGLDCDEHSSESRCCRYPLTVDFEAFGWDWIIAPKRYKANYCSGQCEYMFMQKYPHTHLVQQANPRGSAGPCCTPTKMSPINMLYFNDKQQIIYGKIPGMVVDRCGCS
The test is described as above. On the procedure: as §1

For test [3], the target named is T3, activin A (UniProt P08476 311-426).
T3 construct: also called ActA
T3 sequence (looked up): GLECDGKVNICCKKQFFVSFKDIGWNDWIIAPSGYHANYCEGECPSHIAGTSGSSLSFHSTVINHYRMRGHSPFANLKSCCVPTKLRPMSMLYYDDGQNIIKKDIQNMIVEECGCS
The test is described as above. As for the experimental part: as §1

The target of test [4] is T2, GDF11. Kind of test: SPR (Biacore); receptor-Fc captured by anti-Fc antibody, ligand injected; † Very low signal. As for the experimental part:
(§2) A Biacore™-based binding assay was used to compare ligand binding selectivity of the ActRIIA-Fc:ALK4-Fc heterodimeric complex described above with that of ActRIIA-Fc and ALK4-Fc homodimeric complexes. The ActRIIA-Fc:ALK4-Fc heterodimer, ActRIIA-Fc homodimer, and ALK4-Fc homodimer were independently captured onto the system using an anti-Fc antibody. Ligands were injected and allowed to flow over the captured receptor protein. Results are summarized in Table 14 below, in which ligand off-rates (kd) most indicative of effective ligand traps are denoted in bold.

Test [5] addresses T2, GDF11. The test is described as above. As for the experimental part:
as §2
The source holds these as a separate data set.

Test [6] concerns the target T4, BMP6 (UniProt P22004 375-513, limits assumed).
T4 sequence (looked up): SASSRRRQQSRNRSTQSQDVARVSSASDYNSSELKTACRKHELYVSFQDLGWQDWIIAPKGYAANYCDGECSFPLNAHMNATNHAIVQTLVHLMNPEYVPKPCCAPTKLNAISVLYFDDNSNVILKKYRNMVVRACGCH
Put plainly: SPR (Biacore); receptor-Fc captured by anti-Fc antibody, ligand injected. As for the experimental part: as §2

For test [7], the target named is T5, BMP7 (UniProt P18075 293-431).
T5 sequence (looked up): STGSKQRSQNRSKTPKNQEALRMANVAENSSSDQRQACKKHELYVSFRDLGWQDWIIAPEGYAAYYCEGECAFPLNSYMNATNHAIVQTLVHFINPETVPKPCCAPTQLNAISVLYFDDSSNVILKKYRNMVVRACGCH
The description is as above. As for the experimental part: as §2

The target of test [8] is T2, GDF11. The description is as above. On the procedure:
as §2
This is another data set of the same source.

The target in test [9] is T6, activin AC (UniProt P08476 311-426; P55103 237-352).
T6 sequence (looked up) 1: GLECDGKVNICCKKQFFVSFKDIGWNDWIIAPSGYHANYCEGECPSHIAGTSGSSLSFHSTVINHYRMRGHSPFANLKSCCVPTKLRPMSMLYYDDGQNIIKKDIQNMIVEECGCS
T6 sequence (looked up) 2: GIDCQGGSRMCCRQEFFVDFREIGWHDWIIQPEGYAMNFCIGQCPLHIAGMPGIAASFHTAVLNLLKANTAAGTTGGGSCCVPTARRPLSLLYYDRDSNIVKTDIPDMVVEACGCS
Described as above. As for the experimental part: as §2

Test [10] deals with T7, activin AB (UniProt P08476 311-426; P09529 293-407).
T7 sequence (looked up) 1: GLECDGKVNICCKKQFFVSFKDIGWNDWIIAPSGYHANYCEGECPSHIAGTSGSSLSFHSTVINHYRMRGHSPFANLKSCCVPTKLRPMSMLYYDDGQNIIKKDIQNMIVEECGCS
T7 sequence (looked up) 2: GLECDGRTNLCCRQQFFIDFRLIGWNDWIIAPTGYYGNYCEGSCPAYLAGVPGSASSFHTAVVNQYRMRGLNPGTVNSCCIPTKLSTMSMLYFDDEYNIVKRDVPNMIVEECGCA
The description is as above. On the procedure:
as §2

Test [11] has as its target T3, activin A. The test is described as above. As for the experimental part: as §2
This is another data set of the same source.

In test [12] the target is T8, BMP10 (UniProt O95393 317-424).
T8 sequence (looked up): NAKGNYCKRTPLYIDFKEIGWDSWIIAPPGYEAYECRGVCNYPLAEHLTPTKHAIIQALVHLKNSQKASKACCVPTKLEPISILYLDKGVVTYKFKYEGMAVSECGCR
Described as above. On the procedure:
as §2

Like-named read-outs stand apart in the source and are kept apart here.

B1: ALK4-Fc homodimer (Fc fusion, not shown: a dimerising Fc or GST)
chain: SGPRGVQALLCACTSCLQANYTCETDGACMVSIFNLDGMEHHVRTCIPKVELVPAGKPFYCLSSEDLRNTHCCYTDYCNRIDLRVPSGHLKEPEHPSMWGPVE
Regarding B1, the binding result in test [1], in test [6], in [7], in test [9] and in test [12] was “no binding” each time. The koff (as a rule, the first-order rate constant of dissociation) worked out at 0.0048 s⁻¹ in test [2]; 0.012 s⁻¹ in [3]; 0.0048 s⁻¹ in test [8]; 0.0036 s⁻¹ in test [10]; 0.012 s⁻¹ in test [11]. The association rate constant (kon) (commonly the rate constant with which the complex forms) in test [2] is 5e+06 M⁻¹ s⁻¹; in test [3], 580000 M⁻¹ s⁻¹; in [8], 5e+06 M⁻¹ s⁻¹; in [10], 1.8e+06 M⁻¹ s⁻¹; in [11], 580000 M⁻¹ s⁻¹. Also, the dissociation constant Kd (usually the constant that tells how readily two partners part at equilibrium) was found to be 20 nM in test [3]; 0.97 nM in [4]; 0.97 nM in [5]; 2 nM in [10]; 20 nM in [11].
